Measured values from publication PMC2173577.

Biological target: Grb2, endogenous in Cos-7 cells (African green monkey (endogenous in Cos-7))
Test: co-IP

Substance “Sos-1, endogenous in Cos-7 cells (natural protein)” has a fold excess of the Sos-1–Grb2 complex over the Sos-1–E3b1 complex (co-IP) of 10 fold.
